# Bridge positions count the residues as written; N and C are the ends. Square brackets hold non-standard residues; d marks the D form. Ends that are not written are not given here. * marks the point of attachment. Acetyl(2-(4-imidazolyl)) = O=C(Cc1c[nH]cn1)*; Aib = CC(C)(N)C(=O)O
# T1: human GIP receptor (human, UniProt P48546 22-466)
# T1 sequence (looked up): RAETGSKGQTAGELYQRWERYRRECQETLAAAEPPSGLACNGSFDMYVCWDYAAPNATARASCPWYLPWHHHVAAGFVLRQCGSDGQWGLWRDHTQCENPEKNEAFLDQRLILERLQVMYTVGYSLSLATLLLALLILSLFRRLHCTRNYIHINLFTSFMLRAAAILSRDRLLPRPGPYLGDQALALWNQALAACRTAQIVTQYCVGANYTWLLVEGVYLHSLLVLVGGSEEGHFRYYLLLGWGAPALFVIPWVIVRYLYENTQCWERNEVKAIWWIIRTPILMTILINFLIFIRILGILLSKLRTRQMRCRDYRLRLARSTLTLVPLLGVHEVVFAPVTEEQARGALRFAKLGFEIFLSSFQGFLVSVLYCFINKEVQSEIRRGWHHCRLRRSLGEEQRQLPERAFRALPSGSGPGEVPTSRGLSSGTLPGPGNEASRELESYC
# B1: triple agonist of SEQ ID NO: 92 (peptide)
# peptide: {Acetyl(2-(4-imidazolyl))}-[Aib]QGTFTSDYSIAMDEIHQKDFVNWLLAQKC
# modifications: bridge 15-19
# B2: triple agonist of SEQ ID NO: 94 (peptide)
# peptide: {Acetyl(2-(4-imidazolyl))}-[Aib]QGTFTSDYSIAMDEIHQKDFVNWLLNTKC
# modifications: bridge 15-19
# B3: triple agonist of SEQ ID NO: 12 (peptide)
# peptide: [Acetyl(2-(4-imidazolyl))]GEGTFISDLSKYMDEQAVQLFVEWLMAGGPSSGAPPPSHG
# B4: triple agonist of SEQ ID NO: 99 (peptide)
# peptide: Y[Aib]QGTFTSDYSKALDEKAAKDFVNWLLDHHPSSGQPPPSC
# modifications: bridge 16-20
# B5: triple agonist of SEQ ID NO: 98 (peptide)
# peptide: Y[Aib]QGTFTSDYSKALDEKAAKEFVNWLLDHHPSSGQPPPSC
# modifications: bridge 16-20
# B6: triple agonist of SEQ ID NO: 90 (peptide)
# peptide: {Acetyl(2-(4-imidazolyl))}-[Aib]EGTFTSDYSIAMDEIHQKDFVNWLLAQKC
# modifications: bridge 15-19
# B7: triple agonist of SEQ ID NO: 86 (peptide)
# peptide: {Acetyl(2-(4-imidazolyl))}-[Aib]QGTFTSDYSKYLDEKRQKEFVNWLLAQC
# modifications: bridge 15-19
# B8: triple agonist of SEQ ID NO: 93 (peptide)
# peptide: {Acetyl(2-(4-imidazolyl))}-[Aib]QGTFTSDYSKYLDEKRQKEFVNWLLAQKC
# modifications: bridge 15-19
# B9: triple agonist of SEQ ID NO: 19 (peptide)
# peptide: [Acetyl(2-(4-imidazolyl))]GQGTFTSDLSIQYDSEHQRDFIEWLKDTGPSSGAPPPSHG
# B10: triple agonist of SEQ ID NO: 16 (peptide)
# peptide: [Acetyl(2-(4-imidazolyl))]GQGTFTSDLSKQMDSEAQQLFIEWLKNGGPSSGAPPPSHG
# B11: triple agonist of SEQ ID NO: 87 (peptide)
# peptide: {Acetyl(2-(4-imidazolyl))}-[Aib]QGTFTSDYSIAMDEIHQKDFVNWLLNTC
# modifications: bridge 15-19
# B12: triple agonist of SEQ ID NO: 85 (peptide)
# peptide: {Acetyl(2-(4-imidazolyl))}-[Aib]QGTFTSDYSIAMDEIHQKDFVNWLLAQC
# modifications: bridge 15-19
# B13: triple agonist of SEQ ID NO: 91 (peptide)
# peptide: {Acetyl(2-(4-imidazolyl))}-[Aib]EGTFTSDYSIAMDEIHQKDFVDWLLAEKC
# modifications: bridge 15-19
# B14: triple agonist of SEQ ID NO: 96 (peptide)
# peptide: Y[Aib]QGTFTSDYSKYLDEKRAKEFVQWLLDHCPSSGQPPPS
# modifications: bridge 16-20
# Target: human GLP-1 receptor (human, UniProt P43220 24-463)
# Assay: cell-based or functional assay
row,Binder,"In vitro activity compared to native-type peptide (%), vs GLP-1 [%]"
1,B1,0.8
2,B2,0.5
3,B3,0.4
4,B4,20.9
5,B5,28.1
6,B6,7.4
7,B7,28.4
8,B8,5.7
9,B9,< 0.1
10,B10,2.1
11,B11,0.9
12,B12,4.3
13,B13,31.9
14,B14,34.4

# Target: T1, human GIP receptor
# Assay: cell-based or functional assay
row,Binder,"In vitro activity compared to native-type peptide (%), vs GIP [%]"
1,B1,0.4
2,B2,< 0.1
3,B3,< 0.1
4,B4,57.7
5,B5,47.1
6,B6,< 0.1
7,B7,0.2
8,B8,0.7
9,B9,< 0.1
10,B10,< 0.1
11,B11,< 0.1
12,B12,0.3
13,B13,0.3
14,B14,5.2

# Target: human GCG receptor (human, UniProt P47871 26-477)
# Assay: cell-based or functional assay
# Chain of human GCG receptor (P47871 26-477): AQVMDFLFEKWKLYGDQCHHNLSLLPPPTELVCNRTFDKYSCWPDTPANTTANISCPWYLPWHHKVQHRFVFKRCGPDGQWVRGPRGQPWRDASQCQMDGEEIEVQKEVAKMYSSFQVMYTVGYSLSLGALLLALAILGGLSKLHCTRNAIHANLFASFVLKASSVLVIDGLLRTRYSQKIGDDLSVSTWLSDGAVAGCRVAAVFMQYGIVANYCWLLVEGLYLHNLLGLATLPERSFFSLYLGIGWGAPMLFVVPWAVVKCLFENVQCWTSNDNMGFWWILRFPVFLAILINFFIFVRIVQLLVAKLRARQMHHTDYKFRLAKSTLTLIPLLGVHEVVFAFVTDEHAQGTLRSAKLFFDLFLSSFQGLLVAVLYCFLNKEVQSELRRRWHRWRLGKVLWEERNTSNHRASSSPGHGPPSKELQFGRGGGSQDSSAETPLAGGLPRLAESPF
row,Binder,"In vitro activity compared to native-type peptide (%), vs Glucagon [%]"
1,B1,< 0.1
2,B2,< 0.1
3,B3,< 0.1
4,B4,14.9
5,B5,8.2
6,B6,< 0.1
7,B7,0.4
8,B8,0.3
9,B9,< 0.1
10,B10,< 0.1
11,B11,< 0.1
12,B12,< 0.1
13,B13,16.8
14,B14,195

# Reference: US20230381333A1 (HANMI PHARM, published 2023)
